Measured values as given in patent US20220372577, “ANALYTE DETECTION METHOD” (IMPERIAL COLLEGE OF SCIENCE, TECHNOLOGY AND MEDICINE, published 2022).

Target: alpha-thrombin (UniProt P00734;P00734 P00734:328-363,P00734:364-622)
Assay: binding in 5% human serum, 0.1-100 nM thrombin, 30 pM MB-Carrier; comparable to 0.1 M KCl

B1: TBA-embedded molecular beacon on lambda-DNA carrier (MB-Carrier) (structured_DNA)
DNA: AGGTCGCCGCCCTCCAACGGTTGGTGTGGTTGG
modifications: internal FAM on T13; 3' DABCYL
  binding result: binds
